From the supplement of paper PMC11208486

Assay: specific initial activity, cyclohex-2-enone reduction (U mg-1); higher = more active
Description: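 Specific initial activity of purified ene reductases with 10 mM cyclohex-2-enone and 0.2 mM NAD(P)H in 50 mM sodium phosphate pH 7.4 with 0-45% (v/v) ethanol or methanol, at set reaction temperatures of 25-45 °C. NAD(P)H depletion was followed at 340 nm for 480 s, in triplicate.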

MNPKYKPLFEPFTFKSGVTINNRIAVAPMTHYASNEDGTISEAELDYIIPRSKEMGMVITACANVTPDGKAFPGQPAIHDDSNIPGLKKLAQAIQAQGAKAVVQIHHGGIECPSELVPQQDVVGPSDVFDNGKQIARALTEEEVENIVKAFGEATRRAIEAGFDGVEIHGANGYLIQQFYSPKTNQRTDRWGGSDEKRLAFPLAIVDEVKKAASEHAKGAFLVGYRLSPEEPETPGLTMTETYTLVDALGDKELDYLHISLMDVNSKARRGADPTRTRMDLLNERVGNKVPLIAVGSIHSADDALAVIENGIPLVAMGREILVDPNWTVKVKEGREKQIETVIKGTDKEKYHLPEPLWQAIVNTQGWVPYKD
specific initial activity
Conditions	co-solvent: ethanol	co-solvent: methanol
co-solvent concentration (% v/v): 0, reaction temperature 25 °C	0.8	0.66
co-solvent concentration (% v/v): 0, reaction temperature 30 °C	0.56	0.51
co-solvent concentration (% v/v): 0, reaction temperature 35 °C	0.24	0.25
co-solvent concentration (% v/v): 0, reaction temperature 40 °C	0.15	0.12
co-solvent concentration (% v/v): 5, reaction temperature 25 °C	0.77	0.61
co-solvent concentration (% v/v): 5, reaction temperature 30 °C	0.66	0.42
co-solvent concentration (% v/v): 5, reaction temperature 35 °C	0.27	0.2
co-solvent concentration (% v/v): 5, reaction temperature 40 °C	0.05	0.09
co-solvent concentration (% v/v): 10, reaction temperature 25 °C	0.95	0.69
co-solvent concentration (% v/v): 10, reaction temperature 30 °C	0.67	0.41
co-solvent concentration (% v/v): 10, reaction temperature 35 °C	0.28	0.14
co-solvent concentration (% v/v): 10, reaction temperature 40 °C	0.04	0.04
co-solvent concentration (% v/v): 15, reaction temperature 25 °C	0.96	0.65
co-solvent concentration (% v/v): 15, reaction temperature 30 °C	0.85	0.43
co-solvent concentration (% v/v): 15, reaction temperature 35 °C	0.21	0.1
co-solvent concentration (% v/v): 15, reaction temperature 40 °C	0.03	0.02
co-solvent concentration (% v/v): 20, reaction temperature 25 °C	0.99	0.66
co-solvent concentration (% v/v): 20, reaction temperature 30 °C	0.75	–
co-solvent concentration (% v/v): 20, reaction temperature 35 °C	0.17	–
co-solvent concentration (% v/v): 20, reaction temperature 40 °C	0.03	–
co-solvent concentration (% v/v): 25, reaction temperature 25 °C	0.88	–
co-solvent concentration (% v/v): 25, reaction temperature 30 °C	0.63	–
co-solvent concentration (% v/v): 25, reaction temperature 35 °C	0.08	–
co-solvent concentration (% v/v): 25, reaction temperature 40 °C	0.03	–
co-solvent concentration (% v/v): 30, reaction temperature 25 °C	0.63	–
co-solvent concentration (% v/v): 30, reaction temperature 30 °C	0.44	–
co-solvent concentration (% v/v): 30, reaction temperature 35 °C	0.04	–
co-solvent concentration (% v/v): 30, reaction temperature 40 °C	0.04	–
co-solvent concentration (% v/v): 35, reaction temperature 25 °C	0.45	–
co-solvent concentration (% v/v): 35, reaction temperature 30 °C	0.25	–
co-solvent concentration (% v/v): 35, reaction temperature 35 °C	0.02	–
co-solvent concentration (% v/v): 35, reaction temperature 40 °C	0.04	–
co-solvent concentration (% v/v): 40, reaction temperature 25 °C	0.23	–
co-solvent concentration (% v/v): 40, reaction temperature 30 °C	0.1	–
co-solvent concentration (% v/v): 40, reaction temperature 35 °C	0.04	–
co-solvent concentration (% v/v): 40, reaction temperature 40 °C	0.02	–
co-solvent concentration (% v/v): 45, reaction temperature 25 °C	0.11	–
co-solvent concentration (% v/v): 45, reaction temperature 30 °C	0.06	–
co-solvent concentration (% v/v): 45, reaction temperature 35 °C	0	–
co-solvent concentration (% v/v): 45, reaction temperature 40 °C	0.04	–
